The results in this text go back to EP1012307B1, “ZYMOGENIC PROTEASE PRECURSORS THAT CAN BE AUTOCATALYTICALLY ACTIVATED AND THEIR USE” (Roche Diagnostics GmbH, priority 1997, dated 1999).

Peptide text beside a SMILES is read from it. * marks the point of attachment. pNA = O=[N+]([O-])c1ccc(N*)cc1; Tos = Cc1ccc(S(=O)(=O)*)cc1

Common to all, as to test: Trypsin activity with Chromozym TH as substrate, kinetic constants kcat and Km
Data set [1] deals with T1, humanes Trypsin I, Trypsinvariante rTRYI-VGR (Aktivierungspeptid ValGlyArg, autokatalytisch aktiviert) (Homo sapiens, UniProt P07477).
T1 construct: kodierend für Trypsin I von Aminosäureposition 24-247; made in house
Format: biochemical. The settings on record: Substrat: Chromozym®TH; 25°C, 50 mmol/l Tris-HCl, 150 mmol/l NaCl, 5 mmol/l CaCl2, 0,1% PEG 8000, pH 8,0. The procedure:
Das N-terminale native Trypsinogen I Prosegment AlaProPheAspAspAspAspLys wurde durch das Aktivierungspeptid ValGlyArg ersetzt. Das TRYI-VGR Trypsinvariantengen wurde analog wie das TRYI-GPK Trypsinvariantengen mittels PCR-Technik hergestellt.
(§1) Die Aktivitätsbestimmung von Trypsin wurde in einem Volumen von 1 ml in 50 mmol/l Tris-HCl, 150 mmol/l NaCl, 5 mmol/l CaCl2, 0,1% PEG 8000, pH 8,0 und 0,1 mmol/l des chromogenen Substrats Chromozym®TH (Tosyl-Gly-Pro-Arg-4-pNA, Kat.-Nr. 838268, Boehringer Mannheim GmbH, Mannheim, Deutschland) bei 25°C durchgeführt. Die Reaktion wurde durch Zugabe von 1-10 µl Trypsin-haltiger Probe (0,4-4 U/ml, gelöst in 1 mmol/l HCl) gestartet und die Absorptionsänderung/min (ΔA/min) bei 405 nm (ε405 = 9,75 [mmol^-1 x 1 x cm^-1]) bestimmt. 1 Chromozym®TH Unit Trypsin ist definiert als die Menge Enzym, die 1 µmol pNitroanilin (pNA) pro min bei 25°C aus dem chromozymen Substrat freisetzt.
Die FXa Aktivitätsbestimmung wurde mit dem chromogenen Substrat Chromozym® X (0,1 mmol/l, N-Methoxycarbonyl-D-Nle-Gly-Arg-pNA, Boehringer Mannheim GmbH, Mannheim, Kat.-Nr. 789763) in einem Volumen von 1 ml bei 25°C in 50 mmol/l Tris-HCl, 150 mmol/l NaCl, 5 mmol/l CaCl2, 0,1% PEG 8000, pH 8,0, durchgeführt. […]

Substrate in data set [2]: Cc1ccc(S(=O)(=O)NCC(=O)N2CCC[C@H]2C(=O)N[C@@H](CCCNC(=N)N)C(=O)Nc2ccc([N+](=O)[O-])cc2)cc1
Format: biochemical, human. The settings on record: other: Substrat: Chromozym®TH, 25°C, 50 mmol/l Tris-HCl, 150 mmol/l NaCl, 5 mmol/l CaCl2, 0,1% PEG 8000, pH 8,0.
Source text: Durch Einführung einer zusätzlichen Disulfidbrücke wurde das humane Trypsin I Isoenzym verändert. Dazu wurde die Aminosäure Pro an Position 132 und die Aminosäure Tyr an Position 233 zu Cys mutiert (Aminosäuresequenz-Nummerierung entsprechend der Publikation von Emi, M. et al. (Gene 41 (1986) 305-310)). Durch diese 2 Punktmutationen (P132C und Y233C) kann sich eine zusätzliche 6-te Disulfidbrücke zwischen den erfindungsgemäß eingeführten Cysteinresten an Position 132 und 233 ausbilden. Zudem wurde die Aminosäure Pro an der Position 133 zu Ala mutiert (P133A).
as §1
(§2) Die FXa Aktivitätsbestimmung wurde mit dem chromogenen Substrat Chromozym® X (0,1 mmol/l, N-Methoxycarbonyl-D-Nle-Gly-Arg-pNA, Boehringer Mannheim GmbH, Mannheim, Kat.-Nr. 789763) in einem Volumen von 1 ml bei 25°C in 50 mmol/l Tris-HCl, 150 mmol/l NaCl, 5 mmol/l CaCl2, 0,1% PEG 8000, pH 8,0, durchgeführt. Die Reaktion wurde durch Zugabe von 1-10 µl rFXa-haltiger Probe (0,4-4 U/ml) gestartet und die Absorptionsänderung/min (ΔA/min) bei 405 nm (ε405 = 9,75 [mmol^-1 x 1 x cm^-1]) gemessen. 1 Unit (U) FXa Aktivität ist definiert als die Menge Enzym, die 1 µmol pNA pro min bei 25°C aus dem chromozymen Substrat freisetzt. Die Aktivität und die kinetischen Konstanten wurden aus der linearen Anfangssteigung gemäß der Michaelis-Menten-Gleichung bestimmt. Die Ergebnisse zeigt Tabelle 1. Tabelle 1

Substrate in data set [3]: Cc1ccc(S(=O)(=O)NCC(=O)N2CCC[C@H]2C(=O)N[C@@H](CCCNC(=N)N)C(=O)Nc2ccc([N+](=O)[O-])cc2)cc1
Format: biochemical, Schweine. The settings on record: other: Substrat: Chromozym®TH, 25°C, 50 mmol/l Tris-HCl, 150 mmol/l NaCl, 5 mmol/l CaCl2, 0,1% PEG 8000, pH 8,0. The procedure: as §1, §2

For the molecule `Cc1ccc(S(=O)(=O)NCC(=O)N2CCC[C@H]2C(=O)N[C@@H](CCCNC(=N)N)C(=O)Nc2ccc([N+](=O)[O-])cc2)cc1` [Chromozym®TH, Tosyl-Gly-Pro-Arg-4-pNA] (Tos-Gly-Pro-Arg-pNA), the kcat in data set [1] is 95 ± 1 s⁻¹.

B1: humanes Trypsin I, Trypsinvariante rTRYI-GPK-SS (P132C, P133A, Y233C; zusätzliche Disulfidbrücke) (Homo sapiens; P132C/P133A/Y233C) (protein)
chain: IVGGYNCEENSVPYQVSLNSGYHFCGGSLINEQWVVSAGHCYKSRIQVRLGEHNIEVLEGNEQFINAAKIIRHPQYDRKTLNNDIMLIKLSSRAVINARVSTISLPTACAATGTKCLISGWGNTASSGADYPDELQCLDAPVLSQAKCEASYPGKITSNMFCVGFLEGGKDSCQGDSGGPVVCNGQLQGVVSWGDGCAQKNKPGVYTKVCNYVKWIKNTIAANS
notes: kodierend für Trypsin I von Aminosäureposition 24-247; the Lys is residue 23) (N, cleaved yes); made in house
B1: in data set [2], the Km was 19 ± 1 µM, the kcat was found to be 99 ± 2 s⁻¹ and the kcat/Km was 5,2 1/µM/s.

B2: Schweine Trypsin (Sigma-Aldrich Chemie GmbH, Kat.-Nr. T-7418) (Sus scrofa) (protein)
chain: IVGGYTCAANSIPYQVSLNSGSHFCGGSLINSQWVVSAAHCYKSRIQVRLGEHNIDVLEGNEQFINAAKIITHPNFNGNTLDNDIMLIKLSSPATLNSRVATVSLPRSCAAAGTECLISGWGNTKSSGSSYPSLLQCLKAPVLSDSSCKSSYPGQITGNMICVGFLEGGKDSCQGDSGGPVVCNGQLQGIVSWGYGCAQKNKPGVYTKVCNYVNWIQQTIAAN
notes: purchased Sigma-Aldrich Chemie GmbH T-7418
Regarding B2, in data set [3], the Km was determined as 8.5 µM, the kcat was 97 ± 3 s⁻¹ and the kcat/Km is listed as 11,4 1/µM/s.
